The record followed here is EP4696707A1.

In this experiment the target is ATP5B protein (UniProt P06576). Put plainly: SPR, ATP5B amine-coupled to CM5 chip, peptide in flow at 50 µl/min; binding relative to SEQ ID NO: 12. (In general: In SPR one partner is held on a chip, and binding of the other changes the refractive index at the surface.)
Sequence of ATP5B protein (P06576 48-529 limits assumed): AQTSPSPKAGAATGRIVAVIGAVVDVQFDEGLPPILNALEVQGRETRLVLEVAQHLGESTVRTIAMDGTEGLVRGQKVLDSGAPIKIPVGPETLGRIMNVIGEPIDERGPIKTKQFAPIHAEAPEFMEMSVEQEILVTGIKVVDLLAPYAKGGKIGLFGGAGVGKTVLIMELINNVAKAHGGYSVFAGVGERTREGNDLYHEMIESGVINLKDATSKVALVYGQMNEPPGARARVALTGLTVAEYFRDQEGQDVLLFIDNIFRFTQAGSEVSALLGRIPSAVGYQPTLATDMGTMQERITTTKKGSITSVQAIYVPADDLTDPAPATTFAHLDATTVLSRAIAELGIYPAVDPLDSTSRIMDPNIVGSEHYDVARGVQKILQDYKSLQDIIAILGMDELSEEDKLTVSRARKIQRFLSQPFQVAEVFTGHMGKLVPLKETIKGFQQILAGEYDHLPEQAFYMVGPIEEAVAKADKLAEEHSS
VDRGAGSIRAAGGAFGKREQAEEERYFR [Shortened substance (8-35) amino acid Ala substituted (17)] returned a Binding (%) of 169%.

For VDRAAGSIREAGGAFGKREQAEEERYFR [Shortened substance (8-35) amino acid Ala substituted (11)], the Binding (%) was determined as 100%.

As to VDRGAGSIREAGGAFGKREQAAEERYFR [Shortened substance (8-35) amino acid Ala substituted (29)], the Binding (%) worked out at 96.7%.

With VDRGAASIREAGGAFGKREQAEEERYFR [Shortened substance (8-35) amino acid Ala substituted (13)], the Binding (%) came to 98.5%.

Regarding VARGAGSIREAGGAFGKREQAEEERYFR [Shortened substance (8-35) amino acid Ala substituted (9)], the Binding (%) is 91.6%.

Take VDRGAGSIREAAGAFGKREQAEEERYFR [Shortened substance (8-35) amino acid Ala substituted (19)]: the Binding (%) was determined as 89.6%.

With VDRGAGSIREAGGAFAKREQAEEERYFR [Shortened substance (8-35) amino acid Ala substituted (23)], the Binding (%) came to 102%.

VDRGAGSAREAGGAFGKREQAEEERYFR [Shortened substance (8-35) amino acid Ala substituted (15)] registered a Binding (%) of 99.3%.

Take VDRGAGSIREAGGAFGKREAAEEERYFR [Shortened substance (8-35) amino acid Ala substituted (27)]: the Binding (%) was found to be 89.5%.

VDRGAGSIREAGGAFGKAEQAEEERYFR [Shortened substance (8-35) amino acid Ala substituted (25)] registered a Binding (%) of 85.2%.

As to VDRGAGSIREAGGAFGKREQAEEERYFA [Shortened substance (8-35) amino acid Ala substituted (35)], the Binding (%) stood at 110%.

Regarding VDRGAGSIREAGAAFGKREQAEEERYFR [Shortened substance (8-35) amino acid Ala substituted (20)], the Binding (%) came out at 68%.

In turn, VDRGAGSIREAGGAFGKREQAEEERAFR [Shortened substance (8-35) amino acid Ala substituted (33)] registered a Binding (%) of 146%.

Molecule VDAGAGSIREAGGAFGKREQAEEERYFR [Shortened substance (8-35) amino acid Ala substituted (10)] registered a Binding (%) of 104%.

Take VDRGAGSIREAGGAFGAREQAEEERYFR [Shortened substance (8-35) amino acid Ala substituted (24)]: the Binding (%) was determined as 100%.

For VDRGAGSIREAGGAFGKREQAEEERYFR [Shortened substance (8-35)], the Binding (%) was determined as 100%.

Molecule VDRGAGSIREAGGAFGKREQAEEEAYFR [Shortened substance (8-35) amino acid Ala substituted (32)] had a Binding (%) of 426%.

In the case of VDRGAGAIREAGGAFGKREQAEEERYFR [Shortened substance (8-35) amino acid Ala substituted (14)], the Binding (%) came to 98.8%.

The molecule VDRGAGSIREAGGAFGKREQAEAERYFR [Shortened substance (8-35) amino acid Ala substituted (30)] yielded a Binding (%) of 94%.

In turn, VDRGAGSIREAGGAAGKREQAEEERYFR [Shortened substance (8-35) amino acid Ala substituted (22)] registered a Binding (%) of 94%.

For the molecule VDRGAGSIREAGGAFGKRAQAEEERYFR [Shortened substance (8-35) amino acid Ala substituted (26)], the Binding (%) stood at 94.1%.

Turning to VDRGAGSIREAGGAFGKREQAEEARYFR [Shortened substance (8-35) amino acid Ala substituted (31)], the Binding (%) was determined as 158%.

Molecule VDRGAGSIAEAGGAFGKREQAEEERYFR [Shortened substance (8-35) amino acid Ala substituted (16)] gave a Binding (%) of 97%.

VDRGAGSIREAGGAFGKREQAEEERYAR [Shortened substance (8-35) amino acid Ala substituted (34)] showed a Binding (%) of 92.1%.

In turn, ADRGAGSIREAGGAFGKREQAEEERYFR [Shortened substance (8-35) amino acid Ala substituted (8)] registered a Binding (%) of 101%.
